Laboratory results reported in the supplement of paper PMC10065799, “High-throughput profiling of sequence recognition by tyrosine kinases and SH2 domains using bacterial peptide display” (eLife, 2023).

Columns and labels:
AncSZ = assay: phosphorylation enrichment, bacterial display (enrichment ratio); higher = better substrate or ligand; peptides without Tyr show the background
EPHB1 = EPHB1 (UniProt P54762); assay: as above
EPHB2 = EPHB2 (UniProt P29323); assay: as above
FGFR1 = FGFR1 (UniProt P11362); assay: as above
Sequence of FGFR1 (P11362 whole entry, looked up): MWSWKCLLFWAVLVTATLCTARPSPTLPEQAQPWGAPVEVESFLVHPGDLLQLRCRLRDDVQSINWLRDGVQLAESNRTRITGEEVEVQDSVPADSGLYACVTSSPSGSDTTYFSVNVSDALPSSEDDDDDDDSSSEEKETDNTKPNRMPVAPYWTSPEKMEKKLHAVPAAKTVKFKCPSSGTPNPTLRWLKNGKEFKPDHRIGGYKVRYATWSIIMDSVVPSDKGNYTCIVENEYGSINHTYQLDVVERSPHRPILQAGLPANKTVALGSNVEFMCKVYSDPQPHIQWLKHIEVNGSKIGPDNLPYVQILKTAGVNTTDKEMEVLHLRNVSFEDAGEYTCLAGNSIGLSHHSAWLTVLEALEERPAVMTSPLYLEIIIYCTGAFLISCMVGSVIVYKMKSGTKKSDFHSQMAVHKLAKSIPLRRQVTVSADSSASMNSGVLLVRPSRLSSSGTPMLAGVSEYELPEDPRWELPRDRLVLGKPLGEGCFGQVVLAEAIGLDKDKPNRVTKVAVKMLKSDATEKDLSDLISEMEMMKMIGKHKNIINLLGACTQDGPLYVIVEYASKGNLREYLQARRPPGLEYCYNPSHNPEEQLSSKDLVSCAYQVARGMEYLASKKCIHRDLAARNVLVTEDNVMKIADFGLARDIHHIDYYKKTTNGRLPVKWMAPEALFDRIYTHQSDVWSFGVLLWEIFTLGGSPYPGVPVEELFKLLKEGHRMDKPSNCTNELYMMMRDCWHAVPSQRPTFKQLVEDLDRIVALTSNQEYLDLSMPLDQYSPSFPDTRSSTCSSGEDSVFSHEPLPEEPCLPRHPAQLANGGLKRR

FGFR3 = FGFR3 (UniProt P22607); assay: as above
Sequence of FGFR3 (P22607 whole entry, looked up): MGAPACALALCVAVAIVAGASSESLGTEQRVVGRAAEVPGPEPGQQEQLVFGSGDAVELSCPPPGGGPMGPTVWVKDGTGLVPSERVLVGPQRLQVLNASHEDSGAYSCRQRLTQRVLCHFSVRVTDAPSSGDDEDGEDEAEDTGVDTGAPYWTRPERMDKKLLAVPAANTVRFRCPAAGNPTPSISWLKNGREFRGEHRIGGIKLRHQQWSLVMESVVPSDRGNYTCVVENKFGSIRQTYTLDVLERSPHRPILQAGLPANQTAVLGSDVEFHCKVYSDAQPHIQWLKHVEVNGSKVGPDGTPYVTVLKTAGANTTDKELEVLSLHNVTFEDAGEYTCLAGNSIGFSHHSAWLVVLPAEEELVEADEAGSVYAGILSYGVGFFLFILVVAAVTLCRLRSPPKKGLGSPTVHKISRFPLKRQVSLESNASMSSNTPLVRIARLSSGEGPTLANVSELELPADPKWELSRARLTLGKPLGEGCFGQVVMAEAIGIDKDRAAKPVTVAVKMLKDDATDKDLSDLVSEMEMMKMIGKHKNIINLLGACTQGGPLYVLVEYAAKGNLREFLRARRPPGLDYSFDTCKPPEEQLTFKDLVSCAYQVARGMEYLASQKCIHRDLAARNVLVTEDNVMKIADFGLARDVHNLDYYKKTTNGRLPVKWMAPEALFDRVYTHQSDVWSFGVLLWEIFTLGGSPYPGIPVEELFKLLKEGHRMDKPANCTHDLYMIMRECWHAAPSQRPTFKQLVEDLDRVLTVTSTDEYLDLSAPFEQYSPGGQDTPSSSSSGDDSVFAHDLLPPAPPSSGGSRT

Fer (mouse) = assay: as above
Fes = Fes (UniProt P07332); assay: as above
Fyn = Fyn (UniProt P06241); assay: as above
Sequence of Fyn (P06241 whole entry, looked up): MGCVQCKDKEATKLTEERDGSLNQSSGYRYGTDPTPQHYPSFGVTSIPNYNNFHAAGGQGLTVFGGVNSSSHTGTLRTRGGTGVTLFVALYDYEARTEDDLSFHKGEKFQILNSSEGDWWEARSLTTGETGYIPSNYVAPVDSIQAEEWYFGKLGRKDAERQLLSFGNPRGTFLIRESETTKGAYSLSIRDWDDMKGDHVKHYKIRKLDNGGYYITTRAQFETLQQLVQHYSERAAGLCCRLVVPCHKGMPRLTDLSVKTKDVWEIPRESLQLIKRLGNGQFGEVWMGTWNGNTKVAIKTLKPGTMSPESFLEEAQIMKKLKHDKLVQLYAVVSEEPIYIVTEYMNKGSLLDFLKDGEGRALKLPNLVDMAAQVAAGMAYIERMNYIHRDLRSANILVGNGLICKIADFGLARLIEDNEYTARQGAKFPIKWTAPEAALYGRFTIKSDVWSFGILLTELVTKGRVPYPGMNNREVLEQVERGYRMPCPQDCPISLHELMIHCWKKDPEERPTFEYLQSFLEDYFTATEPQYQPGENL

Hck = Hck (UniProt P08631); assay: as above
Sequence of Hck (P08631 whole entry, looked up): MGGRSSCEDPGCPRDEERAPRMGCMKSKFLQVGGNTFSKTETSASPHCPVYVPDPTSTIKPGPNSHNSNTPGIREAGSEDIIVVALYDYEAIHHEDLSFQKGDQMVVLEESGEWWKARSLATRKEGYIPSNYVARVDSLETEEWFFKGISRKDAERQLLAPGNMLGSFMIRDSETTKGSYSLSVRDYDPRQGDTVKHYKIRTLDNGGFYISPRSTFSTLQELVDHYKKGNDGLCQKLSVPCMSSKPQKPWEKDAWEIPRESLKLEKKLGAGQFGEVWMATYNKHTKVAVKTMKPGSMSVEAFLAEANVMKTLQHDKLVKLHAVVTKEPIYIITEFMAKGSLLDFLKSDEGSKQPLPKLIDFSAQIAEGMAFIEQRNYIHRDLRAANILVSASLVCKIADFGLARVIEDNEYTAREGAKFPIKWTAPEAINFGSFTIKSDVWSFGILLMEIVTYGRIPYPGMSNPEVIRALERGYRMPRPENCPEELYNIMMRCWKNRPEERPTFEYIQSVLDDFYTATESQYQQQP

Jak2 = Jak2 (UniProt O60674); assay: as above
Sequence of Jak2 (O60674 whole entry, looked up): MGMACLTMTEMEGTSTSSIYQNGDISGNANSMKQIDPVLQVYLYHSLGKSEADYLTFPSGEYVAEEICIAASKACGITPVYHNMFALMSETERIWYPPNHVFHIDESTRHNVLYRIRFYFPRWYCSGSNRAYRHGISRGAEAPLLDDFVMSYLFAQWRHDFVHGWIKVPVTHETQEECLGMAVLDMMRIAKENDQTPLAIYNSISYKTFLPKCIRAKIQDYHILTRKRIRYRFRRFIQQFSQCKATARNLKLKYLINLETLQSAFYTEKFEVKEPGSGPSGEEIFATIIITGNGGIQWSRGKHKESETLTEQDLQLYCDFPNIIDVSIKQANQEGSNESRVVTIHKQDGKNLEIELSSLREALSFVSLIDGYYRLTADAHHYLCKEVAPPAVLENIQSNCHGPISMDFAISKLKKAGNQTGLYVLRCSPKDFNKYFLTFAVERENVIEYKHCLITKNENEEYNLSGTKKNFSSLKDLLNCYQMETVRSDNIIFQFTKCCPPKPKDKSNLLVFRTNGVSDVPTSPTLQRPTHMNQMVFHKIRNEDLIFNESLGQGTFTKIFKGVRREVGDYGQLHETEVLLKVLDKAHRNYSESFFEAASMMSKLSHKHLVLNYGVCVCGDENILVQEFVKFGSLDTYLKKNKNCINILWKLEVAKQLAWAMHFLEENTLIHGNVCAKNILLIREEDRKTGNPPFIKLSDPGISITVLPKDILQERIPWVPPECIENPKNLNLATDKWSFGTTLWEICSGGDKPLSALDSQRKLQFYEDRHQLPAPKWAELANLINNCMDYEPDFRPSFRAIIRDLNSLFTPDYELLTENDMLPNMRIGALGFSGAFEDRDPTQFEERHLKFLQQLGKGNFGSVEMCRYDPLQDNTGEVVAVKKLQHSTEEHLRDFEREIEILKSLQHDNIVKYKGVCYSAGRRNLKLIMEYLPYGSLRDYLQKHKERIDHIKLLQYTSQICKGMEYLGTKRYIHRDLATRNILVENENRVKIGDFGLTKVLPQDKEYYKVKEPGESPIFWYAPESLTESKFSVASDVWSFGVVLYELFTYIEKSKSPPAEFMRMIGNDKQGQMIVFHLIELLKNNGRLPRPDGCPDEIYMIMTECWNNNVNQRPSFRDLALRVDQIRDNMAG

MERTK = MERTK (UniProt Q12866); assay: as above
Sequence of MERTK (Q12866 whole entry, looked up): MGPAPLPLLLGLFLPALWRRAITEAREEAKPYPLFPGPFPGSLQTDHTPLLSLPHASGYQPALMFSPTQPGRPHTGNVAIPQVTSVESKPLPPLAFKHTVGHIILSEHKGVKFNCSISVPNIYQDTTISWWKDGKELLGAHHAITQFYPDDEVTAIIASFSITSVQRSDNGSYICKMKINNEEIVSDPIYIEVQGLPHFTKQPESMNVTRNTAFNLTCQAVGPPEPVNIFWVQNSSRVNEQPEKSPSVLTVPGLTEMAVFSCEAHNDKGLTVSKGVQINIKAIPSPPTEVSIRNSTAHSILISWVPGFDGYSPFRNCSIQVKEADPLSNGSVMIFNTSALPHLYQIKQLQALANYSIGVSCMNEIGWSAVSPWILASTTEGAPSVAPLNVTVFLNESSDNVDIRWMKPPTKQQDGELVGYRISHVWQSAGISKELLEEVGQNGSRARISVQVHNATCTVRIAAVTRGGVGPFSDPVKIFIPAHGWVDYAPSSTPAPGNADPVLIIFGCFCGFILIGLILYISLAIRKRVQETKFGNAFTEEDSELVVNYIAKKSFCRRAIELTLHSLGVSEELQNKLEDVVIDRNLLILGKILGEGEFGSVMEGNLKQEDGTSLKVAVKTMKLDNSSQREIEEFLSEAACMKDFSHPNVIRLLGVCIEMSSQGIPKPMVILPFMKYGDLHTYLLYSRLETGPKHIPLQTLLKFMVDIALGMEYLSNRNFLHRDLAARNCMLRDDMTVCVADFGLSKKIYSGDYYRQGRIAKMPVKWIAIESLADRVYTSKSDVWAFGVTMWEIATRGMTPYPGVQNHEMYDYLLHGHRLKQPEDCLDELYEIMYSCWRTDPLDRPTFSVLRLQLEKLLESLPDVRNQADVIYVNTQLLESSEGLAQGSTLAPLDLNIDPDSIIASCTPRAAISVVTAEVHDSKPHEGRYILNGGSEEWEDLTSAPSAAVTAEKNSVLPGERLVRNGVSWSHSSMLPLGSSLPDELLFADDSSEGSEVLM

c-Abl (mouse) = assay: as above
c-Src = assay: as above
Grb2 SH2 = Grb2 SH2 (UniProt P62993); assay: SH2 binding enrichment of the phosphorylated peptide, bacterial display (enrichment ratio); higher = better substrate or ligand; peptides without Tyr show the background
Sequence of Grb2 SH2 (P62993 whole entry, looked up): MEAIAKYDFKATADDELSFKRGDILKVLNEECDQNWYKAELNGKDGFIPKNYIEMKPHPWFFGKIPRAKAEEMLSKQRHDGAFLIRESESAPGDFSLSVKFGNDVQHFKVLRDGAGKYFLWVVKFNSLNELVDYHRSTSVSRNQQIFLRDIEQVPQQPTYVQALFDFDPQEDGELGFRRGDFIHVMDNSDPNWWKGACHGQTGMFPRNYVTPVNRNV

SHP2-C SH2 = assay: as above
c-Src SH2 = assay: as above
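Wherever SH2 binding enrichment of the phosphorylated peptide, bacterial display is given: peptide library displayed on the E. coli surface as eCPX fusions, selected cells deep-sequenced, score is each peptide's frequency after selection divided by its frequency in the input.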
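Wherever phosphorylation enrichment, bacterial display is given: 11-residue human phosphosite peptides and single-mutation variants displayed on the E. coli surface, counted by deep sequencing, each peptide's frequency after selection divided by its frequency in the unselected input library; frequency after pTyr selection over input frequency; kinase dosed for 20-30% of maximal phosphorylation in three min.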

| Sequence | phosphorylation enrichment (AncSZ) | phosphorylation enrichment (EPHB1) | phosphorylation enrichment (EPHB2) | phosphorylation enrichment (FGFR1) | phosphorylation enrichment (FGFR3) | phosphorylation enrichment (Fer (mouse)) | phosphorylation enrichment (Fes) | phosphorylation enrichment (Fyn) | phosphorylation enrichment (Hck) | phosphorylation enrichment (Jak2) | phosphorylation enrichment (MERTK) | phosphorylation enrichment (c-Abl (mouse)) | phosphorylation enrichment (c-Src) | SH2 binding enrichment (Grb2 SH2) | SH2 binding enrichment (SHP2-C SH2) | SH2 binding enrichment (c-Src SH2) |
| --- | --- | --- | --- | --- | --- | --- | --- | --- | --- | --- | --- | --- | --- | --- | --- | --- |
| YPKARYHWLVL [APTX_Y214] | 0.95 | 0.507 | 0.552 | 0.582 | 0.67 | 0.539 | 1.08 | 0.429 | 0.493 | 0.941 | 0.482 | 0.707 | 0.383 | 1.54 | 1.46 | 1.2 |
| YPLAEYTEVKT [ALDH1A3_Y497_A493P] | 1.1 | 0.563 | 0.642 | 1.1 | 0.824 | 0.516 | 0.946 | 0.433 | 0.538 | 0.721 | 0.326 | 0.607 | 0.444 | 1.22 | 0.869 | 1.78 |
| YPRTGYSVPYG [TGM1_Y370_L366P] | 0.714 | 0.418 | 0.519 | 0.525 | 0.545 | 0.383 | 0.78 | 0.459 | 0.453 | 0.925 | 0.55 | 0.681 | 0.406 | 1.01 | 0.854 | 5.88 |
| YQQLFYLLQTN [IQGAP2_Y890] | 1.36 | 1.92 | 0.758 | 2.75 | 2.26 | 0.692 | 1.35 | 0.751 | 1.17 | 1.39 | 2.7 | 1.03 | 1.3 | 1.49 | 1.83 | 1.11 |
| YRDMDYRSYPR [RBM10_Y41] | 0.64 | 0.477 | 0.475 | 2.3 | 1.37 | 0.415 | 0.895 | 0.402 | 0.4 | 0.55 | 0.519 | 0.607 | 0.547 | 0.87 | 0.707 | 0.941 |
| YSGLAYTMERS [GLUD1_Y512_H507Y] | 0.765 | 0.386 | 0.355 | 0.463 | 0.558 | 0.398 | 0.833 | 1.09 | 1.64 | 0.873 | 0.849 | 0.607 | 1.43 | 0.682 | 1.48 | 1.59 |
| YSMGCYEISLE [HMGCL_Y198_G203E] | 2.01 | 1.01 | 0.907 | 0.582 | 1.09 | 1.82 | 1.35 | 1.65 | 1.23 | 1.08 | 1.51 | 0.806 | 2.02 | 0.766 | 0.564 | 0.504 |
| YVSLIYTNYEA [GSTP1_Y109_I105V] | 1.84 | 3.04 | 2.87 | 6.43 | 5.46 | 3.36 | 1.36 | 5.04 | 3.62 | 1.32 | 4.74 | 1.87 | 4.34 | 1.18 | 4.37 | 3.42 |
| YYYDLYGGEKF [PTPN11_Y66_D61Y] | 1.98 | 7.99 | 11.5 | 14.7 | 13.6 | 4.15 | 1.3 | 5.97 | 6.45 | 5.36 | 9.48 | 0.964 | 5.71 | 1.43 | 1.63 | 4.39 |
